The target of this test is Toll-like Receptor 5 (TLR5) constitutively expressed by HEK293 cells (UniProt O60602). Briefly: cell-based or functional assay.

B1: STF2.HA1-1His(PR8), produced in Baculovirus (protein)
chain: AQVINTNSLSLLTQNNLNKSQSALGTAIERLSSGLRINSAKDDAAGQAIANRFTANIKGLTQASRNANDGISIAQTTEGALNEINNNLQRVRELAVQSANSTNSQSDLDSIQAEITQRLNEIDRVSGQTQFNGVKVLAQDNTLTIQVGANDGETIDIDLKQINSQTLGLDSLNVQKAYDVKDTAVTTKAYANNGTTLDVSGLDDAAIKAATGGTNGTASVTGGAVKFDADNNKYFVTIGGFTGADAAKNGDYEVNVATDGTVTLAAGATKTTMPAGATTKTEVQELKDTPAVVSADAKNALIAGGVDATDANGAELVKMSYTDKNGKTIEGGYALKAGDKYYAADYDEATGAIKAKTTSYTAADGTTKTAANQLGGVDGKTEVVTIDGKTYNASKAAGHDFKAQPELAEAAAKTTENPLQKIDAALAQVDALRSDLGAVQNRFNSAITNLGNTVNNLSEARSRIEDSDYATEVSNMSRAQILQQAGTSVLAQANQVPQNVLSLLASGSGSGSSHNGKLCRLKGIAPLQLGKCNIAGWLLGNPECDPLLPVRSWSYIVETPNSENGICYPGDFIDYEELREQLSSVSSFERFEIFPKESSWPNHNTNGVTAACSHEGKSSFYRNLLWLTEKEGSYPKLKNSYVNKKGKEVLVLWGIHHPPNSKEQQNLYQNENAYVSVVTSNYNRRFTPEIAERPKVRDQAGRMNYYWTLLKPGDTIIFEANGNLIAPMYAFALSRGFGSGIITSNASMHECNTKCQTPLGAINSSLPYQNIHPVTIGECPKYVRHHHHHH
Regarding B1, the TLR activity (EC50, ng/ml) is 3 ng/mL.

Values taken from US20130224798A1.
